Data on five molecules can be found in PMC10520083 (2023).

Broadly, the stoichiometry N is the number of molecules, sites or subunits per partner or assembly. As usually defined, the koff is the rate constant with which the complex falls apart. Broadly, the Kd is a measure of binding affinity in units of concentration. By kon is commonly meant a measure of how fast the partners come together. Higher therefore signals faster complex formation.

Residue numbers refer to the chain shown, from its start. In names and notes the source's numbering stands. Where two headings read alike, the source gives them in different places.

The target of assay [1] is human α7 nicotinic acetylcholine receptor with the ICD replaced by a short linker and a C-terminal Rho1D4 tag (α7∆ICDcryo), reconstituted in MSP1E3D1 nanodiscs (human) (UniProt P36544). Briefly: cryo-EM structure; 1 µM α7 pentamer in MSP1E3D1 nanodiscs with 50 µM nanobody (50-fold excess), no nicotine (C4-Apo, E3-Apo).
Assay [2] deals with T1, human α7 nicotinic acetylcholine receptor with the ICD replaced by a short linker and a C-terminal Rho1D4 tag … (human, UniProt P36544 23-502, N-linked glycans at Asn23, Asn67 and Asn110).
T1 chain: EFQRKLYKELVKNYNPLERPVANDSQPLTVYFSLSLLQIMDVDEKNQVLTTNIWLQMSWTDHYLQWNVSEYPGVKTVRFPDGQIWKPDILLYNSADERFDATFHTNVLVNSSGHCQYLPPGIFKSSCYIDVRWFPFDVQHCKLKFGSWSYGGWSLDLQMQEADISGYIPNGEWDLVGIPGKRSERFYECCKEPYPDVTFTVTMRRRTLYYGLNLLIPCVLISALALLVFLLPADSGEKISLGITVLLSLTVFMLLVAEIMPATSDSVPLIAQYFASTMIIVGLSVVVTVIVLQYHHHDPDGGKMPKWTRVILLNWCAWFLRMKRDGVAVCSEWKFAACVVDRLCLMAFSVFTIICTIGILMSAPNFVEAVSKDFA
The assay is described as follows: SPR; α7 prep 2. A general note: Surface plasmon resonance follows binding to a sensor surface in real time, without labels.

The target in assay [3] is T1, human α7 nicotinic acetylcholine …. Briefly: SPR; α7 prep 1, + 100 µM nicotine.
The target in assay [4] is human α7 nicotinic acetylcholine receptor L247T mutant (human) (UniProt P36544).
Assay [5] concerns the target T1, human α7 nicotinic acetylcholine …. The assay is described as follows: SPR; α7 prep 1.
For assay [6] the target is unchanged. Briefly: SPR; α7 prep 1, + 100 µM nicotine.
The target in assay [7] is human α7 nicotinic acetylcholine receptor with the ICD replaced by a short linker and a C-terminal Rho1D4 tag (α7∆ICDcryo), reconstituted in MSP1E3D1 nanodiscs (human) (UniProt P36544). The assay is described as follows: cryo-EM structure; 1 µM α7 pentamer in MSP1E3D1 nanodiscs with 50 µM nanobody (50-fold excess) and 100 µM nicotine (C4-Nic, E3-Nic).
For assay [8] the target is unchanged. Briefly: SPR; single-cycle kinetics, Biacore T200; α7-nanodiscs captured on anti-Rho tag antibody 1D4 immobilised on CM5; nanobodies injected (five increasing concentrations, 600 s each, 30 µl/min); buffer A (20 mM Tris, 250 mM NaCl) pH 8, 25 °C.
The target in assay [9] is T1, human α7 nicotinic acetylcholine …. The assay is described as follows: SPR; α7 prep 1.
Assay [10] has the same target. The assay is described as follows: SPR; α7 prep 2.
The target in assay [11] is human α7 nicotinic acetylcholine receptor with the ICD replaced by a short linker and a C-terminal Rho1D4 tag (α7∆ICDcryo), reconstituted in MSP1E3D1 nanodiscs (human) (UniProt P36544). The assay is described as follows: SPR; single-cycle kinetics, Biacore T200; α7-nanodiscs captured on anti-Rho tag antibody 1D4 immobilised on CM5; nanobodies injected (five increasing concentrations, 600 s each, 30 µl/min); buffer A (20 mM Tris, 250 mM NaCl) pH 8, 25 °C. This is another data set of the same source.

For assay [12] the target is unchanged. Briefly: cryo-EM structure; 1 µM α7 pentamer in MSP1E3D1 nanodiscs with a sub-saturating 10 µM nanobody, no nicotine (C4partial-Apo; 2D classification for E3).
Assay [13] has as its target full-length human α7 nicotinic acetylcholine receptor fused to a Rho1D4 tag at its C-terminus (α7FLcryo) (human) (UniProt P36544). The assay is described as follows: cryo-EM structure; 1 µM α7 pentamer in MSP1E3D1 nanodiscs with 50 µM nanobody (50-fold excess) and 100 µM nicotine (C4-Nic, E3-Nic).

With “human α7 nicotinic acetylcholine receptor with the ICD replaced by a short linker and a C-terminal Rho1D4 tag (α7∆ICDcryo), reconstituted in MSP1E3D1 nanodiscs (from UniProt P36544 23-502)”, the stoichiometry N in [1] was 5.

B1: nanobody E3 (VHH)
VHH: AVQLQASGGGLVQAGDSLRLSCAASGGTFSHYAVGWFRQAPGKEREFVAAISWSGRSTSFANSVKGRFTISRDSAKNTAYLQMNNLKPEDTAVYCCAPARFGTGSAARDEYDDCGQGTQVTVSS
In the case of B1, the koff in assay [2] was 0.019 s⁻¹; in [3], 0.0085 s⁻¹; in [8] it was 0.0119 s⁻¹; in assay [9] it was 0.013 s⁻¹. For the same molecule, the stoichiometry N (nanobodies per α7 pentamer) in assay [1] and in assay [7] was 5 in each case. In [4], this molecule returned an increase of the holding current during pre-application of E3 in the absence of ACh (direct activation, TEVC, Xenopus oocytes) (% of the response to 0.3 µM ACh) of 6. Further, the Kd in assay [5] stood at 8 nM; in assay [6] it was 7.4 nM; in assay [8] it was 1 nM. In assay [8], the on-rate (kon) amounted to 1.1e+07 M⁻¹ s⁻¹. Further, the stoichiometry N (nanobodies per receptor molecule) in assay [8] was below 3.

B2: nanobody E3 E110Q (VHH)
VHH: B1 VHH with E110Q
In the case of B2, in assay [2], the koff is 0.011 s⁻¹. The molecule further registered a Kd in assay [10] of 0.62 nM.

B3: nanobody E3 R56A (VHH)
VHH: B1 VHH with R56A
With B3, the koff in [2] turned out to be 0.01 s⁻¹. The Kd in assay [10] amounted to 1.5 nM.

B4: nanobody C4 (VHH)
VHH: QVQLVESGGGLVQAGGSLKLSCAASGFTFAHYAMVWFRQAPGKEREFVAGISWSGASTYYASSVKGRFTISRDNAKNTVYLQMNSLKPEDTAVYYVAAARFGVGVDDDYSYWGQGTQVTVSS
In turn, B4 came in with a stoichiometry N (nanobodies per α7 pentamer) in assay [1] of 5. For the same molecule, the Kd in assay [11] turned out to be 0.1 nM. In assay [12], this molecule registered a stoichiometry N (nanobodies per α7 pentamer) of 3. The stoichiometry N (nanobodies per α7 pentamer) in [13] turned out to be 5. In addition, in assay [8], the Kd worked out at 0.2 nM, the koff amounted to 0.00024 s⁻¹, the kon came to 1.2e+06 M⁻¹ s⁻¹ and the stoichiometry N (nanobodies per receptor molecule) is below 3.
